Source: publication doi:10.1101/2025.11.05.686565 (bioRxiv, 2025)

Target: the molecule itself
Assay: cryo-EM structure

B1: full-length, strep-tagged human Wdr37 (natural protein, UniProt Q9Y2I8 1-494, looked up)
chain: MPTESASCSTARQTKQKRKSHSLSIRRTNSSEQERTGLPRDMLEGQDSKLPSSVRSTLLELFGQIEREFENLYIENLELRREIDTLNERLAAEGQAIDGAELSKGQLKTKASHSTSQLSQKLKTTYKASTSKIVSSFKTTTSRAACQLVKEYIGHRDGIWDVSVAKTQPVVLGTASADHTALLWSIETGKCLVKYAGHVGSVNSIKFHPSEQLALTASGDQTAHIWRYAVQLPTPQPVADTSISGEDEVECSDKDEPDLDGDVSSDCPTIRVPLTSLKSHQGVVIASDWLVGGKQAVTASWDRTANLYDVETSELVHSLTGHDQELTHCCTHPTQRLVVTSSRDTTFRLWDFRDPSIHSVNVFQGHTDTVTSAVFTVGDNVVSGSDDRTVKVWDLKNMRSPIATIRTDSAINRINVCVGQKIIALPHDNRQVRLFDMSGVRLARLPRSSRQGHRRMVCCSAWSEDHPVCNLFTCGFDRQAIGWNINIPALLQEK
- stoichiometry N: 2
